The test system of assay [1] is primary preadipocytes and mouse embryonic fibroblasts (MEFs). In words: Adipocyte differentiation of primary preadipocytes and MEFs isolated from sLZIP TG mice. The settings on record: cells isolated from sLZIP TG mice vs wild type mice. Type of assay: cell-based. The text has this: In order to generate human sLZIP transgenic (TG) mice, sLZIP genes were cloned into a pCMV-flag expression vector. The sLZIP TG mice were generated by Macrogen, Inc (Seoul, Korea). Transgenic founders were mated with wild type C57BL/6 mice to produce F1 heterozygotes. F1-F4 generations were genetically screened for transgenes at an age of 2 weeks old. The following two primers were used to amplify genomic DNA in order to identify wild type and TG mice: [NT] and 5'-[NT]3.' Adipocyte differentiation is a well-regulated procedure. PPARγ2 is a major regulator of adipogenesis, is highly expressed during adipocyte differentiation, and regulates expression of genes involved in adipogenesis. An effect of sLZIP on adipogenesis in vivo was examined. For this purpose, in order to produce human sLZIP transgenic mice, sLZIP genes were cloned in a pCMV-flag expression vector. The sLZIP TG mice were produced in Macrogen, Inc (Seoul, Korea) (FIG. 8A). Preadipocytes were isolated from epididymal adipose tissues of sLZIP TG mice. […] A promoter activity was measured according to luciferase analysis (FIG. 8B). […] Total RNA was extracted from the cells, and an mRNA expression level of mouse LZIPs was measured using RT-PCR analysis. […] Total RNA was isolated from the cells, and an mRNA expression level of mouse LZIPs was measured using RT-PCR (FIG. 9C) and real-time PCR (FIG. 9D).

Assay [2] has as its system FABP4 and other PPARγ2 target genes. Nature of the assay: RT-PCR and real-time PCR of PPARγ2 target genes in differentiated preadipocytes of sLZIP TG mice. It is filed as cell-based, mouse. The note with it: sLZIP TG mice preadipocytes differentiated into adipocytes. As for the experimental part:
According to instructions of the manufacturer, a TRIzol reagent (Invitrogen, Carlsbad, Calif.) was added to directly lyse cells in a culture dish. Accupower RT PreMix (BioNeer, Daejeon, Korea) was used to synthesize cDNA from 2 μg of total RNA. A reaction was performed for 60 minutes at 42° C. and for 5 minutes at 94° C. PCR amplification was performed using oligomers listed in Table 2 and a Hipi PCR Mix Kit (ELPIS). As an internal control group, GAPDH was amplified. A PCR product was subjected to electrophoresis in 1-2% (w/v) agarose gel containing 0.5 μg/mL ethidium bromide. A size of the PCR product was measured by comparing it with 1 kb DNA ladder marker (Invitrogen). An intensity of bands amplified according to RT-PCR was analyzed using MultiImage™ Light Cabinet (version 5.5, Alpha Innotech Corp., San Leandro, Calif.).
Real-time PCR was performed in LightCycler 480 using a SYBR Green Master Mix (Roche, Mannheim, Germany). β-actin was used as an internal control group. A target gene expression level rate with respect to β-actin was calculated using CT method. A Ct value is defined as a PCR cycle number at which a fluorescence signal reaches a fixed target threshold. Experiments were technically repeated three times for each experiment.
Adipocyte differentiation is a well-regulated procedure. […] A promoter activity was measured according to luciferase analysis (FIG. 8B). […]
In general terms: Real-time PCR tracks product formation cycle by cycle.

B1: sLZIP: human small leucine-zipper protein, isoform of LZIP, 354 amino acids, no transmembrane domain; GenBank FJ263669, SEQ ID NO: 1 (protein, listed as Homo sapiens)
chain: MELELDAGDQDLLAFLLEESGDLGTAPDEAVRAPLDWALPLSEVPSDWEVDDLLCSLLSPPASLNILSSSNPCLVHHDHTYSLPRETVSMDLESESCRKEGTQMTPQHMEELAEQEIARLVLTDEEKSLLEKEGLILPETLPLTKTEEQILKRVRRKIRNKRSAQESRRKKKVYVGGLESRVLKYTAQNMELQNKVQLLEEQNLSLLDQLRKLQAMVIEISNKTSSSSMYSSDTRGSLPAEHGVLSRQLRALPSEDPYQLELPALQSEVPKDSTHQWLDGSDCVLQAPGNTSCLLHYMPQAPSAEPPLEWPFPDLFSEPLCRGPILPLQANLTRKGGWLPTGSPSVILQDRYSG
In the case of B1, the adipocyte differentiation entry in assay [1] is given as “inhibited more than in wild type mice”. The “expression of FABP4 and other PPARγ2 target genes (C/EBPα, LPL) mRNA” value in assay [2] is “down-regulated”.

The values are drawn from patent US10058586B2, “Use of human small leucine zipper protein in adipocyte differentiation procedure” (Korea University Research and Business Foundation, priority 2013, dated 2018).
